Measurements: article PMC4052767 (Genes & Development, 2014)
Numbering of substitutions follows the chain as printed. Names and notes keep the numbering of the source.

T1: Yeast Hat2p (full length) with N-terminal 6xHis tag (yeast (Saccharomyces cerevisiae), UniProt P39984 1-401)
T1 sequence: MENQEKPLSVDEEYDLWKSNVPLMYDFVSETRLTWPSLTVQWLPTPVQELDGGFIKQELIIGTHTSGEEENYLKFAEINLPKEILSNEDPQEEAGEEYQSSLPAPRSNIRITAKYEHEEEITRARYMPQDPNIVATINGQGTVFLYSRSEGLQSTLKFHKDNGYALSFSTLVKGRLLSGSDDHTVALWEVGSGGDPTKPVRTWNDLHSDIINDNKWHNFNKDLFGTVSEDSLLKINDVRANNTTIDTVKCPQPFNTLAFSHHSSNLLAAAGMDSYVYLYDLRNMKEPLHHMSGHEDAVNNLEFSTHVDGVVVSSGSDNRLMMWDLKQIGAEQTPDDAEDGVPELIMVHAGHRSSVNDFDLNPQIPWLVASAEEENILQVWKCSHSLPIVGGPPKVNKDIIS

B1: Yeast Hat1p (1-320) (enzyme)
chain: MSANDFKPETWTSSANEALRVSIVGENAVQFSPLFTYPIYGDSEKIYGYKDLIIHLAFDSVTFKPYVNVKYSAKLGDDNIVDVEKKLLSFLPKDDVIVRDEAKWVDCFAEERKTHNLSDVFEKVSEYSLNGEEFVVYKSSLVDDFARRMHRRVQIFSLLFIEAANYIDETDPSWQIYWLLNKKTKELIGFVTTYKYWHYLGAKSFDEDIDKKFRAKISQFLIFPPYQNKGHGSCLYEAIIQSWLEDKSITEITVEDPNEAFDDLRDRNDIQRLRKLGYDAVFQKHSDLSDEFLESSRKSLKLEERQFNRLVEMLLLLNNS
B2: Hat1p A163Y (enzyme)
chain: B1 chain with A163Y
B3: Hat1p A202D (enzyme)
chain: B1 chain with A202D
B4: Hat1p Y37A (enzyme)
chain: B1 chain with Y37A
B5: Hat1p Y194A (enzyme)
chain: B1 chain with Y194A
B6: Hat1p Y196A (enzyme)
chain: B1 chain with Y196A

Target: T1, Yeast Hat2p (full length) with …
Assay: crystal structure

| binding result | Binder |
| --- | --- |
| binds | ARTKQTARKSTGGKA [H3 peptide (residues 1-15), unmodified] |

Target: T1, Yeast Hat2p (full length) with …
Assay: pull-down

| binding result | Binder |
| --- | --- |
| binds | B1 |
| binds | B2 |
| binds | B3 |
| binds | B4 |
| binds | B5 |
| binds | B6 |
